Source: patent US20250263461A1
Values belong to the substance of their own block, whether it stands above or below them.

Columns and labels:
[1] = target: NY-ESO-1 and/or LAGE-1a peptide on HLA-A*02:01 (human); assay: value quoted for comparison with 1G4LY; no measurement of 1G4 is described in this filing
[2] = target: NY-ESO-1 and/or LAGE-1a peptide on HLA-A*02:01 (human); assay: surface plasmon resonance; biotinylated pMHC on streptavidin chip, soluble TCR 0 to 250 nM as analyte; 1:1 binding model; soluble, other
[3] = target: NY-ESO-1 and/or LAGE-1a peptide on HLA-A*02:01 (human); assay: surface plasmon resonance; biotinylated pMHC on streptavidin chip, soluble TCR as analyte; 1:1 binding model; soluble, other
[4] = target: pMHC1 complex: Biotin-HLA-A*02:01-… (SEQ ID NO: 1); assay: SPR, pMHC on streptavidin chip, soluble TCR as analyte, 1:1 binding model

Kd [1]: 32000 nM
Substance: 1G4 TCR

Kd [2]: 761 nM | koff [3]: 0.0303 s⁻¹ | kon [3]: 39800 M⁻¹ s⁻¹
Substance: 1G4LY TCR

Kd [4]: 761 nM | koff [4]: 0.0303 s⁻¹ | kon [4]: 39800 M⁻¹ s⁻¹
Substance: soluble 1G4LY TCR
